Values quoted from earlier work, collected in patent US6844322B2, “Method for induced lactation” (Monsanto Technology LLC, priority 2000, dated 2005).

System: cows
Conditions: somatotropin included in the induction protocol (Kensinger et al., 1998)

B1: POSILAC® somatotropin: Sustained-release bovine somatotropin, Monsanto (protein, UniProt P01246 27-217, looked up)
Somatotropin: AFPAMSLSGLFANAVLRAQHLHQLAADTFKEFERTYIPEGQRYSIQNTQVAFCFSETIPAPTGKNEAQQKSDLELLRISLLLIQSWLGPLQFLSRVFTNSLVFGTSDRVYEKLKDLEEGILALMRELEDGTPRAGQILKQTYDKFDTNMRSDDALLKNYGLLSCFRKDLHKTETYLRVMKCRRFGEASCAF
modifications: sustained-release formulation
notes: Sustained-release bovine somatotropin, Monsanto
  increase in milk yield compared to cows treated with steroids alone: 17%
